Laboratory results published in US20240058465A1 (SUTRO BIOPHARMA, published 2024).
Substitutions are numbered along the chain they refer to.

B1: SRP2188-A10 (antibody, IgG1, V domains shown)
VH: EVQLVESGGGLVQPGGSLRLSCAASGFNINSYDIHWVRQAPGKGLEWVGWINPEDGDTSHADSVKGRFTISADTSKNTAYLQMNSLRAEDTAVYYCARDYGVFDYWGQGTLVTVSS
VL: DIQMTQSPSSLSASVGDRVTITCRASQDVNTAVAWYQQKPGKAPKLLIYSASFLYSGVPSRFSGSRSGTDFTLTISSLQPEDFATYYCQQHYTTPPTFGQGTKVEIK
notes: IgG1 with trastuzumab LC; HIS- and FLAG-tagged; cell-free expressed
B2: SRP2188-A11 (antibody, IgG1, V domains shown)
VH: B1 VH with N30S, S31D, G49S, W50L, N52D, E54K, D57A, S59D, H60S, E89G
VL: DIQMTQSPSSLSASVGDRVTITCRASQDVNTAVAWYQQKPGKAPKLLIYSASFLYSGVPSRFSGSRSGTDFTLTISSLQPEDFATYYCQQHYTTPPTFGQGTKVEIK
notes: as for B1
B3: SRP2188-B06 (antibody, IgG1, V domains shown)
VH: B1 VH with N30H, K43E, E54D, S59Y
VL: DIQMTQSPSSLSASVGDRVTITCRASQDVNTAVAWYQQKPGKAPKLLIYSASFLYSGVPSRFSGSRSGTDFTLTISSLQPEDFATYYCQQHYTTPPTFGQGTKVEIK
notes: as for B1
B4: SRP2188-B09 (antibody, IgG1, V domains shown)
VH: B1 VH with W50V, N52D, E54K, D57W, S59D, A88T
VL: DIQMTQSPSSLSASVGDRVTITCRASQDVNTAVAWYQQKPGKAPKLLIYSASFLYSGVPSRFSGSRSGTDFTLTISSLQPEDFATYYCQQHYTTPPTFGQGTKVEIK
notes: as for B1
B5: SRP2188-B10 (antibody, IgG1, V domains shown)
VH: B1 VH with E54H, S59Y
VL: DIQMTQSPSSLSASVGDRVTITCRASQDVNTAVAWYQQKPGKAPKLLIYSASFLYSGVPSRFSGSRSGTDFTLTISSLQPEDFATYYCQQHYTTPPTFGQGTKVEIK
notes: as for B1
B6: SRP2188-C04 (antibody, IgG1, V domains shown)
VH: B1 VH with S59Y, K65R, F103Y
VL: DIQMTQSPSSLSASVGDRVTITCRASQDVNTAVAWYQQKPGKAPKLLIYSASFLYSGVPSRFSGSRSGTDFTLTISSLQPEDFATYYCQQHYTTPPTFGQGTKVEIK
notes: as for B1
B7: SRP2188-C05 (antibody, IgG1, V domains shown)
VH: B1 VH with Y32F, W50G, N52D, E54R, D57S, S59D, H60S
VL: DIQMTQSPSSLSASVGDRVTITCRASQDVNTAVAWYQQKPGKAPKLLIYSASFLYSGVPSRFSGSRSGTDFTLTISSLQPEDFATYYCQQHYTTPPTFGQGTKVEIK
notes: as for B1
B8: SRP2188-C11 (antibody, IgG1, V domains shown)
VH: B1 VH with N30K, E54D, S59Y, H60L
VL: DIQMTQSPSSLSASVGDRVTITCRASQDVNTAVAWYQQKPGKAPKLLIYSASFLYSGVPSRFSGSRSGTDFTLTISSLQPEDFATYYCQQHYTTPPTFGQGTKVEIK
notes: as for B1
B9: SRP2188-D05 (antibody, IgG1, V domains shown)
VH: B1 VH with N30S, S31E, W50G, N52D, E54H, D57W, S59D, F103Y
VL: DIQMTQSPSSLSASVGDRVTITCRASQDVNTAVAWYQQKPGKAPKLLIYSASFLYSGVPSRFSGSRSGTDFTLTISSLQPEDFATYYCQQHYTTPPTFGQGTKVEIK
notes: as for B1
B10: SRP2188-D08 (antibody, IgG1, V domains shown)
VH: B1 VH with N30R, S31D, G49V, W50G, N52D, E54D, D57A, S59D, H60E
VL: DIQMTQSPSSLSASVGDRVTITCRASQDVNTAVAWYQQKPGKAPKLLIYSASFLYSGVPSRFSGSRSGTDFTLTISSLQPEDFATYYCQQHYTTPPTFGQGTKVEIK
notes: as for B1
B11: SRP2188-D11 (antibody, IgG1, V domains shown)
VH: B1 VH with P14T, N30R, S31D, W50L, N52D, E54D, D57S, S59D, H60E
VL: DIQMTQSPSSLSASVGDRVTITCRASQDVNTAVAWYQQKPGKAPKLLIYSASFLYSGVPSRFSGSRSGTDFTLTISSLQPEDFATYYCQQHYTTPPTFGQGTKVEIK
notes: as for B1
B12: SRP2188-E08 (antibody, IgG1, V domains shown)
VH: B1 VH with N30I, S31D, Y32F, W50G, N52D, E54Q, D57S, S59D, H60L, F68L
VL: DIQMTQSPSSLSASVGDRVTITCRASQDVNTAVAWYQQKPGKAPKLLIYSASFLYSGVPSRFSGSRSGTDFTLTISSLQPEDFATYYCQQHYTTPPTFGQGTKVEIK
notes: as for B1
B13: SRP2188-E09 (antibody, IgG1, V domains shown)
VH: B1 VH with N30S, S31D, Y32F, G49A, W50E, N52D, E54Q, D57W, S59V
VL: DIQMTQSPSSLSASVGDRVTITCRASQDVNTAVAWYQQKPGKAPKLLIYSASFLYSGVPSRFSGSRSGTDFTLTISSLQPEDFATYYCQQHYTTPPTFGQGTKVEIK
notes: as for B1
B14: SRP2188-E11 (antibody, IgG1, V domains shown)
VH: B1 VH with N30S, S31H, G49S, W50G, N52D, E54G, D57A, S59D
VL: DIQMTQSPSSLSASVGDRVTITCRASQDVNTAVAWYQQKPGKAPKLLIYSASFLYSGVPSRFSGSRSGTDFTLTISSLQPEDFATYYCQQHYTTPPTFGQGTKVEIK
notes: as for B1
B15: SRP2188-F02 (antibody, IgG1, V domains shown)
VH: B1 VH with N30S, S31D, G49A, N52D, E54S, D57S, S59E, N84S
VL: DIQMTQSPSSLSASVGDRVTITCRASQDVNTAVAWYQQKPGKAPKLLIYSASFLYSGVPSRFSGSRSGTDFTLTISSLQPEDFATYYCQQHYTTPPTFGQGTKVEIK
notes: as for B1
B16: SRP2188-F07 (antibody, IgG1, V domains shown)
VH: B1 VH with N30S, S31D, W50G, N52D, E54N, D57S, S59D, T78M
VL: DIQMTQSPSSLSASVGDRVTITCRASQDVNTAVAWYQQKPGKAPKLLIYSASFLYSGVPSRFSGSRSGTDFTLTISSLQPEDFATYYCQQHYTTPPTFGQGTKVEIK
notes: as for B1

Assays:
[1] = target: T1, human ROR1-ECD (human, UniProt Q01973 30-406); test: SPR (Biacore), antibody captured by anti-Fc, human ROR1-ECD analyte
T1 construct: Bought protein; also called hROR1; ROR1-extracellular domain
Procedure: Anti-Fc polyclonal antibodies were immobilized onto a CMS chip (GE Life Sciences) using amine coupling chemistry (from Amine Coupling Kit, GE Life Sciences). The immobilization steps were carried out at a flow rate of 25 μL/min in 1×HBS-EP+buffer (GE Life Sciences; 10× Stock diluted before use). The sensor surfaces were activated for 7 min with a mixture of NHS (0.05 M) and EDC (0.2 M). The Anti-Fc antibodies were injected over all 4 flow cells at a concentration of 25 ug/ml in 10 mM sodium acetate, pH 4.5, for 7 min. Ethanolamine (1 M, pH 8.5) was injected for 7 min to block any remaining activated groups.
Off-rate and kinetic binding experiments were performed at 25° C. using 1×HBS-EP+buffer. Test and control antibodies were injected over the anti-Fc surface at concentrations of 5-10 μg/mL for 12 seconds at a flow rate of 10 μL/min on flow cells 2, 3 and 4, followed by a buffer wash for 30 seconds at the same flow rate. […] After capturing ligand (antibody) on the anti-Fc surface, the analyte (hROR1, Fz or Kr domains, Acro Biosystems, Delaware) was bound for 180 seconds, followed by a 600 second dissociation phase at a flow rate of 50 μL/min. Between each ligand capture and analyte binding cycle, regeneration was carried out using 2 injections of 10 mM Glycine pH 2.0 for 30 seconds at 30 μL/min, followed by a 30 second buffer wash step.

[2] = target: T2, human ROR1 (hROR1) expressed on cells (human, UniProt Q01973 30-937); test: flow cytometry, HCT116-hROR1 cells
T2 construct: Mino cells are the target positive cells of the killing assay; also called receptor tyrosine kinase like orphan receptor 1; HCT 116-hROR1

Row | Binder | Kd [1] | koff [1] | kon [1] | Bmax (MFI) [2] | Kd [2]
1 | B1 | 0.426 nM | 0.000222 s⁻¹ | 522000 M⁻¹ s⁻¹ | 9150 MFI | 0.03 nM
2 | B2 | 0.354 nM | 0.000379 s⁻¹ | 1.07e+06 M⁻¹ s⁻¹ | 8340 MFI | 0.06 nM
3 | B3 | 0.504 nM | 0.000467 s⁻¹ | 927000 M⁻¹ s⁻¹ | 9130 MFI | 0.06 nM
4 | B4 | 0.657 nM | 0.000579 s⁻¹ | 882000 M⁻¹ s⁻¹ | 9420 MFI | 0.05 nM
5 | B5 | 0.462 nM | 0.000539 s⁻¹ | 1.17e+06 M⁻¹ s⁻¹ | 9000 MFI | 0.04 nM
6 | B6 | 0.139 nM | 0.000101 s⁻¹ | 723000 M⁻¹ s⁻¹ | 9500 MFI | 0.03 nM
7 | B7 | 0.427 nM | 0.000453 s⁻¹ | 1.06e+06 M⁻¹ s⁻¹ | 9510 MFI | 0.06 nM
8 | B8 | 0.873 nM | 0.000617 s⁻¹ | 707000 M⁻¹ s⁻¹ | 9210 MFI | 0.04 nM
9 | B9 | 0.48 nM | 0.000359 s⁻¹ | 747000 M⁻¹ s⁻¹ | 9840 MFI | 0.04 nM
10 | B10 | 0.381 nM | 0.000268 s⁻¹ | 703000 M⁻¹ s⁻¹ | 9600 MFI | 0.05 nM
11 | B11 | 0.741 nM | 0.00055 s⁻¹ | 743000 M⁻¹ s⁻¹ | 9600 MFI | 0.02 nM
12 | B12 | – | – | – | 9330 MFI | 0.03 nM
13 | B13 | – | – | – | 9780 MFI | 0.02 nM
14 | B14 | – | – | – | 9250 MFI | 0.03 nM
15 | B15 | – | – | – | 9850 MFI | 0.03 nM
16 | B16 | – | – | – | 9870 MFI | 0.03 nM
